Assay results from the supplement of paper PMC5998384.

What was measured:
[1] = test system: HeLa Kyoto; test: solubility in G1/S (NP-40 vs SDS abundance) (log2 ratio); higher = more soluble; conditions: cell cycle stage: G1/S
[2] = test system: HeLa Kyoto; test: melting temperature (median over replicates), in situ; higher = more thermally stable
[3] = test system: HeLa Kyoto; test: solubility change mitosis vs G1/S (difference of NP-40 vs SDS log2 ratios) (log2 ratio difference); higher = more soluble in mitosis
[4] = test system: HeLa Kyoto; test: thermal stability score vs G1/S (z-score of summed log2 fold changes over temperatures); higher = more thermally stable than in G1/S
[5] = cell cycle stage: early G1 (4.5 h after nocodazole release)
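Wherever melting temperature (median over replicates), in situ is given: HeLa Kyoto cells synchronized by double thymidine or nocodazole block, proteins quantified by TMT10plex mass spectrometry, three independent biological replicates.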
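Wherever solubility change mitosis vs G1/S (difference of NP-40 vs SDS log2 ratios) is given: synchronized HeLa Kyoto cells (double thymidine block for G1/S, nocodazole release for mitosis), protein amounts in NP-40 versus SDS lysates quantified by mass spectrometry, three biological replicates.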
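Wherever solubility in G1/S (NP-40 vs SDS abundance) is given: HeLa Kyoto cells arrested at G1/S by double thymidine block, proteins quantified by TMT10plex mass spectrometry in mild NP-40 versus SDS extracts, three biological replicates.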
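Wherever thermal stability score vs G1/S (z-score of summed log2 fold changes over temperatures) is given: synchronized HeLa Kyoto cells, proteins quantified by TMT10plex mass spectrometry, three biological replicates, mitosis taken 0.5 h after nocodazole release, G1/S directly after double thymidine block.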

Sequence | solubility in G1/S (log2) [1] | melting temperature ([2]; cell cycle stage: G1/S) | melting temperature ([2]; cell cycle stage: mitosis) | solubility change mitosis (log2) [3] | thermal stability score [4, 5] | thermal stability score ([4]; cell cycle stage: mitosis)
MAQSLRLHFAARRSNTYPLSETSGDDLDSHVHMCFKRPTRISTSNVVQMKLTPRQTALAPLIKENVQSQERSSVPSSENVNKKSSCLQISLQPTRYSGYLQSSNVLADSDDASFTCILKDGIYSSAVVDNELNAVNDGHLVSSPAICSGSLSNFSTSDNGSYSSNGSDFGSCASITSGGSYTNSVISDSSSYTFPPSDDTFLGGNLPSDSTSNRSVPNRNTTPCEIFSRSTSTDPFVQDDLEHGLEIMKLPVSRNTKIPLKRYSSLVIFPRSPSTTRPTSPTSLCTLLSKGSYQTSHQFIISPSEIAHNEDGTSAKGFLSTAVNGLRLSKTICTPGEVRDIRPLHRKGSLQKKIVLSNNTPRQTVCEKSSEGYSCVSVHFTQRKAATLDCETTNGDCKPEMSEIKLNSDSEYIKLMHRTSACLPSSQNVDCQININGELERPHSQMNKNHGILRRSISLGGAYPNISCLSSLKHNCSKGGPSQLLIKFASGNEGKVDNLSRDSNRDCTNELSNSCKTRDDFLGQVDVPLYPLPTENPRLERPYTFKDFVLHPRSHKSRVKGYLRLKMTYLPKTSGSEDDNAEQAEELEPGWVVLDQPDAACHLQQQQEPSPLPPGWEERQDILGRTYYVNHESRRTQWKRPTPQDNLTDAENGNIQLQAQRAFTTRRQISEETESVDNRESSENWEIIREDEATMYSNQAFPSPPPSSNLDVPTHLAEELNARLTIFGNSAVSQPASSSNHSSRRGSLQAYTFEEQPTLPVLLPTSSGLPPGWEEKQDERGRSYYVDHNSRTTTWTKPTVQATVETSQLTSSQSSAGPQSQASTSDSGQQVTQPSEIEQGFLPKGWEVRHAPNGRPFFIDHNTKTTTWEDPRLKIPAHLRGKTSLDTSNDLGPLPPGWEERTHTDGRIFYINHNIKRTQWEDPRLENVAITGPAVPYSRDYKRKYEFFRRKLKKQNDIPNKFEMKLRRATVLEDSYRRIMGVKRADFLKARLWIEFDGEKGLDYGGVAREWFFLISKEMFNPYYGLFEYSATDNYTLQINPNSGLCNEDHLSYFKFIGRVAGMAVYHGKLLDGFFIRPFYKMMLHKPITLHDMESVDSEYYNSLRWILENDPTELDLRFIIDEELFGQTHQHELKNGGSEIVVTNKNKKEYIYLVIQWRFVNRIQKQMAAFKEGFFELIPQDLIKIFDENELELLMCGLGDVDVNDWREHTKYKNGYSANHQVIQWFWKAVLMMDSEKRIRLLQFVTGTSRVPMNGFAELYGSNGPQSFTVEQWGTPEKLPRAHTCFNRLDLPPYESFEELWDKLQMAIENTQGFDGVD [NEDD4] | -0.127 | 49.3 °C | 49.7 °C | -0.163 | -0.41 | 0.545
MAQTLQMEIPNFGNSILECLNEQRLQGLYCDVSVVVKGHAFKAHRAVLAASSSYFRDLFNNSRSAVVELPAAVQPQSFQQILSFCYTGRLSMNVGDQFLLMYTAGFLQIQEIMEKGTEFFLKVSSPSCDSQGLHAEEAPSSEPQSPVAQTSGWPACSTPLPLVSRVKTEQQESDSVQCMPVAKRLWDSGQKEAGGGGNGSRKMAKFSTPDLAANRPHQPPPPQQAPVVAAAQPAVAAGAGQPAGGVAAAGGVVSGPSTSERTSPGTSSAYTSDSPGSYHNEEDEEEDGGEEGMDEQYRQICNMYTMYSMMNVGQTAEKVEALPEQVAPESRNRIRVRQDLASLPAELINQIGNRCHPKLYDEGDPSEKLELVTGTNVYITRAQLMNCHVSAGTRHKVLLRRLLASFFDRNTLANSCGTGIRSSTNDPRRKPLDSRVLHAVKYYCQNFAPNFKESEMNAIAADMCTNARRVVRKSWMPKVKVLKAEDDAYTTFISETGKIEPDMMGVEHGFETASHEGEAGPSAEALQ [NACC1] | 0.142 | 47.6 °C | 49.4 °C | -0.176 | 3.55 | 6.42
MAQTVQNVTLSLTLPITCHICLGKVRQPVICINNHVFCSICIDLWLKNNSQCPACRVPITPENPCKEIIGGTSESEPMLSHTVRKHLRKTRLELLHKEYEDEIDCLQKEVEELKSKNLSLESQIKTILDPLTLVQGNQNEDKHLVTDNPSKINPETVAEWKKKLRTANEIYEKVKDDVDKLKEANKKLKLENGGLVRENLRLKAEVDNRSPQKFGRFAVAALQSKVEQYERETNRLKKALERSDKYIEELESQVAQLKNSSEEKEAMNSICQTALSADGKGSKGSEEDVVSKNQGDSARKQPGSSTSSSSHLAKPSSSRLCDTSSARQESTSKADLNCSKNKDLYQEQVEVMLDVTDTSMDTYLEREWGNKPSDCVPYKDEELYDLPAPCTPLSLSCLQLSTPENRESSVVQAGGSKKHSNHLRKLVFDDFCDSSNVSNKDSSEDDISRSENEKKSECFSSPKTGFWDCCSTSYAQNLDFESSEGNTIANSVGEISSKLSEKSGLCLSKRLNSIRSFEMNRTRTSSEASMDAAYLDKISELDSMMSESDNSKSPCNNGFKSLDLDGLSKSSQGSEFLEEPDKLEEKTELNLSKGSLTNDQLENGSEWKPTSFFLLSPSDQEMNEDFSLHSSSCPVTNEIKPPSCLFQTEFSQGILLSSSHRLFEDQRFGSSLFKMSSEMHSLHNHLQSPWSTSFVPEKRNKNVNQSTKRKIQSSLSSASPSKATKS [RNF219] | -0.0524 | 46.5 °C | 49.3 °C | -0.0524 | 0.213 | 2.43
MAQYKGAASEAGRAMHLMKKREKQREQMEQMKQRIAEENIMKSNIDKKFSAHYDAVEAELKSSTVGLVTLNDMKAKQEALVKEREKQLAKKEQSKELQMKLEKLREKERKKEAKRKISSLSFTLEEEEEGGEEEEEAAMYEEEMEREEITTKKRKLGKNPDVDTSFLPDRDREEEENRLREELRQEWEAKQEKIKSEEIEITFSYWDGSGHRRTVKMRKGNTMQQFLQKALEILRKDFSELRSAGVEQLMYIKEDLIIPHHHSFYDFIVTKARGKSGPLFNFDVHDDVRLLSDATVEKDESHAGKVVLRSWYEKNKHIFPASRWEPYDPEKKWDKYTIR [FAM50A] | 0.0519 | 48.4 °C | 50.3 °C | -0.0697 | 1.03 | 2.04
MARCERLRGAALRDVLGRAQGVLFDCDGVLWNGERAVPGAPELLERLARAGKAALFVSNNSRRARPELALRFARLGFGGLRAEQLFSSALCAARLLRQRLPGPPDAPGAVFVLGGEGLRAELRAAGLRLAGDPSAGDGAAPRVRAVLVGYDEHFSFAKLREACAHLRDPECLLVATDRDPWHPLSDGSRTPGTGSLAAAVETASGRQALVVGKPSPYMFECITENFSIDPARTLMVGDRLETDILFGHRCGMTTVLTLTGVSRLEEAQAYLAAGQHDLVPHYYVESIADLTEGLED [PDXP] | 0.126 | 56.7 °C | 57.5 °C | -0.126 | -2.14 | -1.83
MARGERRRRAVPAEGVRTAERAARGGPGRRDGRGGGPRSTAGGVALAVVVLSLALGMSGRWVLAWYRARRAVTLHSAPPVLPADSSSPAVAPDLFWGTYRPHVYFGMKTRSPKPLLTGLMWAQQGTTPGTPKLRHTCEQGDGVGPYGWEFHDGLSFGRQHIQDGALRLTTEFVKRPGGQHGGDWSWRVTVEPQDSGTSALPLVSLFFYVVTDGKEVLLPEVGAKGQLKFISGHTSELGDFRFTLLPPTSPGDTAPKYGSYNVFWTSNPGLPLLTEMVKSRLNSWFQHRPPGAPPERYLGLPGSLKWEDRGPSGQGQGQFLIQQVTLKIPISIEFVFESGSAQAGGNQALPRLAGSLLTQALESHAEGFRERFEKTFQLKEKGLSSGEQVLGQAALSGLLGGIGYFYGQGLVLPDIGVEGSEQKVDPALFPPVPLFTAVPSRSFFPRGFLWDEGFHQLVVQRWDPSLTREALGHWLGLLNADGWIGREQILGDEARARVPPEFLVQRAVHANPPTLLLPVAHMLEVGDPDDLAFLRKALPRLHAWFSWLHQSQAGPLPLSYRWRGRDPALPTLLNPKTLPSGLDDYPRASHPSVTERHLDLRCWVALGARVLTRLAEHLGEAEVAAELGPLAASLEAAESLDELHWAPELGVFADFGNHTKAVQLKPRPPQGLVRVVGRPQPQLQYVDALGYVSLFPLLLRLLDPTSSRLGPLLDILADSRHLWSPFGLRSLAASSSFYGQRNSEHDPPYWRGAVWLNVNYLALGALHHYGHLEGPHQARAAKLHGELRANVVGNVWRQYQATGFLWEQYSDRDGRGMGCRPFHGWTSLVLLAMAEDY [MOGS] | -0.0875 | 52.9 °C | 52.8 °C | -0.0215 | 3.25 | 3.97
MARGGRGRRLGLALGLLLALVLAPRVLRAKPTVRKERVVRPDSELGERPPEDNQSFQYDHEAFLGKEDSKTFDQLTPDESKERLGKIVDRIDNDGDGFVTTEELKTWIKRVQKRYIFDNVAKVWKDYDRDKDDKISWEEYKQATYGYYLGNPAEFHDSSDHHTFKKMLPRDERRFKAADLNGDLTATREEFTAFLHPEEFEHMKEIVVLETLEDIDKNGDGFVDQDEYIADMFSHEENGPEPDWVLSEREQFNEFRDLNKDGKLDKDEIRHWILPQDYDHAQAEARHLVYESDKNKDEKLTKEEILENWNMFVGSQATNYGEDLTKNHDEL [RCN1] | 0.419 | 55 °C | 56.4 °C | 0.0254 | 1.52 | 1.33
MARLWGALSLWPLWAAVPWGGAAAVGVRACSSTAAPDGVEGPALRRSYWRHLRRLVLGPPEPPFSHVCQVGDPVLRGVAAPVERAQLGGPELQRLTQRLVQVMRRRRCVGLSAPQLGVPRQVLALELPEALCRECPPRQRALRQMEPFPLRVFVNPSLRVLDSRLVTFPEGCESVAGFLACVPRFQAVQISGLDPNGEQVVWQASGWAARIIQHEMDHLQGCLFIDKMDSRTFTNVYWMKVND [PDF] | 0.308 | 54.8 °C | 54.9 °C | -0.136 | 1.03 | 0.625
MARNAEKAMTALARFRQAQLEEGKVKERRPFLASECTELPKAEKWRRQIIGEISKKVAQIQNAGLGEFRIRDLNDEINKLLREKGHWEVRIKELGGPDYGKVGPKMLDHEGKEVPGNRGYKYFGAAKDLPGVRELFEKEPLPPPRKTRAELMKAIDFEYYGYLDEDDGVIVPLEQEYEKKLRAELVEKWKAEREARLARGEKEEEEEEEEEINIYAVTEEESDEEGSQEKGGDDSQQKFIAHVPVPSQQEIEEALVRRKKMELLQKYASETLQAQSEEARRLLGY [ISY1] | 0.128 | 46.7 °C | 51.2 °C | 0.254 | -2.75 | -1.6
MARPDDEEGAAVAPGHPLAKGYLPLPRGAPVGKESVELQNGPKAGTFPVNGAPRDSLAAASGVLGGPQTPLAPEEETQARLLPAGAGAETPGAESSPLPLTALSPRRFVVLLIFSLYSLVNAFQWIQYSIISNVFEGFYGVTLLHIDWLSMVYMLAYVPLIFPATWLLDTRGLRLTALLGSGLNCLGAWIKCGSVQQHLFWVTMLGQCLCSVAQVFILGLPSRIASVWFGPKEVSTACATAVLGNQLGTAVGFLLPPVLVPNTQNDTNLLACNISTMFYGTSAVATLLFILTAIAFKEKPRYPPSQAQAALQDSPPEEYSYKKSIRNLFKNIPFVLLLITYGIMTGAFYSVSTLLNQMILTYYEGEEVNAGRIGLTLVVAGMVGSILCGLWLDYTKTYKQTTLIVYILSFIGMVIFTFTLDLRYIIIVFVTGGVLGFFMTGYLPLGFEFAVEITYPESEGTSSGLLNASAQIFGILFTLAQGKLTSDYGPKAGNIFLCVWMFIGIILTALIKSDLRRHNINIGITNVDVKAIPADSPTDQEPKTVMLSKQSESAI [FLVCR1] | -0.162 | 57.4 °C | 59.1 °C | -0.0168 | -1.21 | -2.85
